Source: patent publication US20190284280A1 (ANAPTYSBIO, published 2019)

Key:
[1] = target: T1, soluble cynomolgus monkey TIM-3 fusion (cynomolgus monkey, UniProt A0A2K5U3G7 22-195); test: SPR Biacore T200; captured TIM-3 fusion, antibody flowed over; 1:1 model
T1 construct: The SPR method describes only the human mIgG2a Fc fusion; not shown: mIgG2a Fc i
T1 sequence: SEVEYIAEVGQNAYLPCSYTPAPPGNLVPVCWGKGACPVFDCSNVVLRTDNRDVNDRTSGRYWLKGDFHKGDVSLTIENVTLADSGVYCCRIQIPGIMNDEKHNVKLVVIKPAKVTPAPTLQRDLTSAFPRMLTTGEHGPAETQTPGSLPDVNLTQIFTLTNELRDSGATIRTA

[2] = target: T2, native human TIM-3 stably transfected in CHO-K1 cells (human, UniProt Q8TDQ0 22-301); test: flow cytometry on human TIM-3 expressing CHO-K1 cells, PE anti-human IgG4 detection
T2 construct: whole, on cells; also called cell-surface human TIM-3; human TIM-3 expressing CHO-K1 cells
T2 sequence (looked up): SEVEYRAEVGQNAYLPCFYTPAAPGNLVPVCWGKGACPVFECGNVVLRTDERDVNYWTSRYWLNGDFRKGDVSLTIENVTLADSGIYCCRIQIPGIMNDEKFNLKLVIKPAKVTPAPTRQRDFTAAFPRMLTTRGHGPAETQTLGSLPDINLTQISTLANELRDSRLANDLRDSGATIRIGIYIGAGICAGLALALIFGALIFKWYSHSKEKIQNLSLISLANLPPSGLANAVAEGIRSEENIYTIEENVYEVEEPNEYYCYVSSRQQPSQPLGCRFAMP
Description: (§1) Flow cytometry studies were performed with CHO-K1 cell line clones in which native human or cynomolgus monkey TIM-3 was stably transfected. An exemplary anti-TIM-3 antibody (having heavy and light chains as set forth in SEQ ID NOs: 1 & 2, respectively) was diluted in 3-fold dilutions. Dilutions of exemplary antibody were added to human or cynomolgus monkey TIM-3 expressing CHO-K1 cells (1E5 cells) and incubated on ice. Cells were washed twice and incubated on ice with PE-conjugated goat anti-human IgG4 to detect antibody binding. Cells were washed and resuspended in the presence of propidium iodide to exclude dead cells and fixed before fluorescence was analyzed on a BD FACSArray (BD Biosciences). Data were analyzed for median fluorescence intensity, graphed, and curves fitted for EC₅₀ value calculation in GraphPad Prism (GraphPad Software, Inc.) using a non-linear (sigmoidal) regression analysis.

[3] = target: T3, Dimeric soluble human TIM-3 mIgG2a Fc (human; mouse, UniProt Q8TDQ0 22-200); test: SPR Biacore T200; TIM-3 fusion captured on anti-mouse IgG Fc, antibody flowed over; 1:1 model
T3 construct: Captured on an anti-mouse IgG (Fc-specific) Biacore CM5 surface; also called soluble TIM-3 fusion; not shown: mouse IgG2a Fc
T3 sequence (looked up): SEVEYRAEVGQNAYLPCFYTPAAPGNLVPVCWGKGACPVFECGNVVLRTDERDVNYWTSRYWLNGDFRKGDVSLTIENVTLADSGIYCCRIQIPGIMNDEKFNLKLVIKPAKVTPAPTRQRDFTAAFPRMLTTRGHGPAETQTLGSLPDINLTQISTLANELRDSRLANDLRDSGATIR
Description: SPR analyses were carried out using a Biacore T200, and kinetic constants were determined using Biacore T200 Evaluation software. […] GE anti-mouse IgG (Fc-specific) was immobilized on a Biacore CM5 chip using EDC-activated amine coupling chemistry. Dimeric soluble human TIM-3 mIgG2a Fc was then captured onto this surface to a target capture level of ˜70 RU or less. Next an exemplary anti-TIM-3 antibody (having heavy and light chains as set forth in SEQ ID NOs: 1 & 2, respectively) was flowed over the surface with captured antigen (TIM-3 fusion). Capture and analyte binding were performed in HBS-EP+ buffer. The captured antigen and antibodies were removed between each cycle to ensure a fresh binding surface for each concentration of […]. The resulting sensorgrams were fitted globally using a 1:1 binding model to calculate on- and off-rates (kassoc and kdissoc, respectively), and dissociation constants as a measure of overall affinity (KD).

[4] = target: T4, native cynomolgus monkey TIM-3 stably transfected in CHO-K1 cells (cynomolgus monkey, UniProt A0A2K5U3G7 22-294); test: flow cytometry on cynomolgus monkey TIM-3 expressing CHO-K1 cells, PE anti-human IgG4 detection
T4 construct: whole, on cells; also called cell-surface cynomolgus monkey TIM-3; cynomolgus monkey TIM-3 expressing CHO-K1 cells
T4 sequence: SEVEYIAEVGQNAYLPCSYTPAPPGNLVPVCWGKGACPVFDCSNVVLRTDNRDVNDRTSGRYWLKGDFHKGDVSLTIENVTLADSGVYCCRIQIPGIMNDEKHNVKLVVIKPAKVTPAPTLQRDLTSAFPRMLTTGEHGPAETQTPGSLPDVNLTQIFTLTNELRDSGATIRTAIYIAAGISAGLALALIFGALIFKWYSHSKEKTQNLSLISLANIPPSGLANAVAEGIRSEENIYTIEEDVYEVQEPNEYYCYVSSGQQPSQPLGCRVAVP
Description: as §1

Kd [1]: 0.017 nM | koff [1]: 0.00019 s⁻¹ | kon [1]: 1.1e+07 M⁻¹ s⁻¹ | EC50 [2]: 0.17 nM | Kd [3]: 0.007 nM | koff [3]: 0.00011 s⁻¹ | kon [3]: 1.5e+07 M⁻¹ s⁻¹ | EC50 [4]: 0.27 nM
B1: exemplary anti-TIM-3 antibody (having heavy and light chains as set forth in SEQ ID NOs: 1 & 2, respectively) (antibody, human IgG4 S228P, kappa, V domains shown)
VH: EVQLLESGGGLVQPGGSLRLSCAAASGFTFSSYDMSWVRQAPGKGLDWVSTISGGGTYTYYQDSVKGRFTISRDNSKNTLYLQMNSLRAEDTAVYYCASMDYWGQGTTVTVSS
VL: DIQMTQSPSSLSASVGDRVTITCRASQSIRRYLNWYHQKPGKAPKLLIYGASTLQSGVPSRFSGSGSGTDFTLTISSLQPEDFAVYYCQQSHSAPLTFGGGTKVEIKR
modifications: N-glycosylation at asparagine residue 290 of SEQ ID NO:1
notes: Humanized IgG4 (human IGHG4*01) / kappa (IGKC*01); also called exemplary humanized monoclonal anti-TIM-3 antibody; anti-TIM-3 mAb
